Reference: patent publication US20090274696A1, “METHODS FOR TREATING INFLAMMATION” (WYETH, priority 2008, published 2009)

Experiments:
[1] = test system: TSM of fresh tracheal rings; test: Force response of fresh tracheas from intranasally challenged mice; assay type: in vivo, mouse; details: intranasal once a day×5 days, 100 nM rFIZZ1 or 0.1 ng/ml LPS; 24 hours after last treatment; PBS 100.00±14.63; N=5
Method: For some experiments, ex vivo TSM tensions of fresh tracheal rings and BAL cell counts were measured at 24 hours after the last treatment of mice receiving an intranasal dose of either PBS, 0.1 ng/m: LPS or 100 nM rFIZZ1 (once a day×5 days).
Trachea were supported longitudinally by a plexiglas rod with a stainless steel pin into the base of a double-jacketed, glass organ bath filled with 10 mL of Krebs-Henseleit (K-H) solution (37° C.) of the following composition: 118 mM NaCl; 4.7 mM KCl; 1.2 mM KH2PO4; 11.1 mM Dextrose; 1.2 mM MgSO4; 2.8 mM CaCl2; and 25 mM NaHCO3. The solution was maintained at a pH of 7.40-7.45 and continuously gassed with a mixture of 5% CO2 and […] for the duration of each experiment. […] Initial tensions of TSM were set at approximately 0.5 g and maintained for 1 hour. Agonists were given after a steady state of tension had been reached.
At the end of each force measurement experiment, tracheas were blotted on a gauze pad and weighted. Results were calculated as milligram of tension per milligram of TSM weight (mg/mg) and expressed as an individual percentage (%) of 10 μM CCh- or 200 μM papaverine-induced tension response in PBS-treated trachea. For the control group, CCh (papaverine)-mediated responses were normalized to the mean value of the maximal responses.

[2] = test system: mouse tracheal epithelium cells (MTEC); test: MTEC apoptosis, Cell Death Detection ELISAplus; assay type: cell-based
Method: MTEC culture was performed by following the protocol of You et al. (“Growth and differentiation of mouse tracheal epithelial cells: selection of a proliferative population,” Am J Physiol Lung Cell Mol Physiol, 2002, 283:L 1315-1321) with minor modification. Briefly, tracheas were incubated in 1.5 mg/mL pronase (Roche Molecular Biochemicals) for 18 h at 4° C. Cells were treated with 0.5 mg/mL crude pancreatic DNase I (Sigma-Aldrich) on ice for 5 min. After incubation in tissue culture plates for 3-4 h in 5% CO2 at 37° C., nonadherent cells were incubated in a plate coated with type I rat tail collagen (BD Biosciences) in modified BEBM (Lonza, Md. USA) containing 10 μg/ml insulin, 5 μg/ml transferrin, 25 ng/ml epidermal growth factor, 5 μg/ml epinephrine and 30 μg/ml bovine pituitary extract, 0.5 nM Hydrocortisone, 25 ng/ml hEGF, 15 nM Triiodothyronine, 0.25 μg/ml Gentamicin/amphotericin-B and 0.01 μM retinoic acid in 5% CO2 at 37° C. […]
Apoptotic MTEC death was examined using Cell Death Detection ELISAplus (Roche) according to the manufacturer's instructions and calculated as an index of a fold change over a control. […] Quantitation of histone-associated-DNA-fragments in supernatants of MTEC cultures (5×10^4/mL) treated with PBS, 0.1 ng/mL LPS or 100 nM rFIZZ1 was performed at an absorbance of 405-490 nm.

B1: rFIZZ1: recombinant FIZZ1 (Leinco Technologies), mouse FIZZ1 protein, resistin-like molecule-α (protein, listed as Mus musculus)
chain: MKTTTCSLLICISLLQLMVPVNTDETIEIIVENKVKELLANIPANYPSTVTKTLSCTSVKTMNRWASCPAGMTATGCACGFACGSWEIQSGDTCNCLCLLV
modifications: (1)..(101) Murine FIZZ1 polypeptide
- Maximal tensions (%) of TSM, CCh-evoked, fresh trachea [1]: 147.78±18.57%
- MTEC apoptosis (apoptosis index) ([2]; 100 nM rFIZZ1, all time points, compared to LPS treatment, N=3): significant increased
- start of increase in cell death, time of incubation ([2]; FIZZ1-treated MTEC): 3 h
